Source: patent EP4725963A1 (Jiangsu Hengrui Pharmaceuticals Co., Ltd., dated 2026)

T1: human NPR1 full-length protein overexpressed on CHO-K1 cells (human, UniProt P16066 33-1061)
T1 sequence: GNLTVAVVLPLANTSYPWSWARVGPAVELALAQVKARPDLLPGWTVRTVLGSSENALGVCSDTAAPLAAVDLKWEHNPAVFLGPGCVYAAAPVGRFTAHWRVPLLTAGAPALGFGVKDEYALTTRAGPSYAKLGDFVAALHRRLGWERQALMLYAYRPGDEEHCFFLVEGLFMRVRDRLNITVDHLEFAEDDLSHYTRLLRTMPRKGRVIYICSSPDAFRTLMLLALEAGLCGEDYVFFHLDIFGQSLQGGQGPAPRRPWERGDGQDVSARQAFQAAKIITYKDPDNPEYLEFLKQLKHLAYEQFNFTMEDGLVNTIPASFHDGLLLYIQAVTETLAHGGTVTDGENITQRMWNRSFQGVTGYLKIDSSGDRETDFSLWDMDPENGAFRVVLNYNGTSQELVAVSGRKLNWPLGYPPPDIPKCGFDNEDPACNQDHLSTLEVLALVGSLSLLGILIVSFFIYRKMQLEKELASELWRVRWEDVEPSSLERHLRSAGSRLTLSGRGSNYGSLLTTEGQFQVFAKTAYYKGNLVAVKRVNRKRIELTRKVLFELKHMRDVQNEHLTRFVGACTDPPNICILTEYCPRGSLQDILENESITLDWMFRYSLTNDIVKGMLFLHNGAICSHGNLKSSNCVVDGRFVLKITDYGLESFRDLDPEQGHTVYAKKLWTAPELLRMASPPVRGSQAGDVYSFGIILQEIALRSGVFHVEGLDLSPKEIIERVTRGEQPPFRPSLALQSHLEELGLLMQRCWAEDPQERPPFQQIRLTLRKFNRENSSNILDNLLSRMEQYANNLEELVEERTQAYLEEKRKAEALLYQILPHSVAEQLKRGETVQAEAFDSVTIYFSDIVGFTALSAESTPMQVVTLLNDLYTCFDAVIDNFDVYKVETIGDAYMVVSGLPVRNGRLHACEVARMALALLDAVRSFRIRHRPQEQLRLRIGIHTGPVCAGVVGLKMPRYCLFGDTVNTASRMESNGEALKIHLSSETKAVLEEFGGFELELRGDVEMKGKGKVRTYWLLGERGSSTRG


What follows are binders tested against T1, human NPR1 full-length protein … (assay: cell-based or functional assay).

cGMP production: EC50 [nM]	cGMP production: Emax	cGMP production: Emin	Binder
45.6	0.6	0.077	Hu127H4L1 (antibody, human IgG1, kappa, L234A L235A) heavy: not shown light: DIVMTQSPDSLAVSLGERATINCRASESVDSYGNSFMHWYQQKPGQPPKVLIYLASTLESGVPDRFSGSGSRTDFTLTISSLQAEDVAVYYCQQNNEDPLTFGQGTKLEIKRTVAAPSVFIFPPSDEQLKSGTASVVCLLNNFYPREAKVQWKVDNALQSGNSQESVTEQDSKDSTYSLSSTLTLSKADYEKHKVYACEVTHQGLSSPVTKSFNRGEC
55.8	0.5	0.081	Hu127H7L1 (antibody, human IgG1, kappa, L234A L235A) heavy: not shown light: DIVMTQSPDSLAVSLGERATINCRASESVDSYGNSFMHWYQQKPGQPPKVLIYLASTLESGVPDRFSGSGSRTDFTLTISSLQAEDVAVYYCQQNNEDPLTFGQGTKLEIKRTVAAPSVFIFPPSDEQLKSGTASVVCLLNNFYPREAKVQWKVDNALQSGNSQESVTEQDSKDSTYSLSSTLTLSKADYEKHKVYACEVTHQGLSSPVTKSFNRGEC
51.4	0.48	0.087	Hu127H4L3 (antibody, human IgG1, kappa, L234A L235A) heavy: not shown light: NIVLTQSPDSLAVSLGERATINCRASESVDSYGNSFMHWYQQKPGQPPKVLIYLASTLESGVPDRFSGSGSRTDFTLTISSLQAEDVAVYYCQQNNEDPLTFGQGTKLEIKRTVAAPSVFIFPPSDEQLKSGTASVVCLLNNFYPREAKVQWKVDNALQSGNSQESVTEQDSKDSTYSLSSTLTLSKADYEKHKVYACEVTHQGLSSPVTKSFNRGEC
56.5	0.54	0.066	Hu127H7L3 (antibody, human IgG1, kappa, L234A L235A) heavy: not shown light: NIVLTQSPDSLAVSLGERATINCRASESVDSYGNSFMHWYQQKPGQPPKVLIYLASTLESGVPDRFSGSGSRTDFTLTISSLQAEDVAVYYCQQNNEDPLTFGQGTKLEIKRTVAAPSVFIFPPSDEQLKSGTASVVCLLNNFYPREAKVQWKVDNALQSGNSQESVTEQDSKDSTYSLSSTLTLSKADYEKHKVYACEVTHQGLSSPVTKSFNRGEC
48.6	0.46	0.072	Hu127H8L3 (antibody, human IgG1, kappa, L234A L235A) heavy: not shown light: NIVLTQSPDSLAVSLGERATINCRASESVDSYGNSFMHWYQQKPGQPPKVLIYLASTLESGVPDRFSGSGSRTDFTLTISSLQAEDVAVYYCQQNNEDPLTFGQGTKLEIKRTVAAPSVFIFPPSDEQLKSGTASVVCLLNNFYPREAKVQWKVDNALQSGNSQESVTEQDSKDSTYSLSSTLTLSKADYEKHKVYACEVTHQGLSSPVTKSFNRGEC
62.6	0.45	0.083	Hu127H8L1 (antibody, human IgG1, kappa, L234A L235A) heavy: not shown light: DIVMTQSPDSLAVSLGERATINCRASESVDSYGNSFMHWYQQKPGQPPKVLIYLASTLESGVPDRFSGSGSRTDFTLTISSLQAEDVAVYYCQQNNEDPLTFGQGTKLEIKRTVAAPSVFIFPPSDEQLKSGTASVVCLLNNFYPREAKVQWKVDNALQSGNSQESVTEQDSKDSTYSLSSTLTLSKADYEKHKVYACEVTHQGLSSPVTKSFNRGEC
42.6	0.51	0.068	Hu127H7L5 (antibody, human IgG1, kappa, L234A L235A) heavy: not shown light: NIQLTQSPSSLSASVGDRVTITCRASESVDSYGNSFMHWYQQKPGKAPKVLIYLASTLESGVPSRFSGSGSRTDFTLTISSLQPEDFATYYCQQNNEDPLTFGQGTKLEIKRTVAAPSVFIFPPSDEQLKSGTASVVCLLNNFYPREAKVQWKVDNALQSGNSQESVTEQDSKDSTYSLSSTLTLSKADYEKHKVYACEVTHQGLSSPVTKSFNRGEC
42	0.43	0.065	Hu127H8L5 (antibody, human IgG1, kappa, L234A L235A) heavy: not shown light: NIQLTQSPSSLSASVGDRVTITCRASESVDSYGNSFMHWYQQKPGKAPKVLIYLASTLESGVPSRFSGSGSRTDFTLTISSLQPEDFATYYCQQNNEDPLTFGQGTKLEIKRTVAAPSVFIFPPSDEQLKSGTASVVCLLNNFYPREAKVQWKVDNALQSGNSQESVTEQDSKDSTYSLSSTLTLSKADYEKHKVYACEVTHQGLSSPVTKSFNRGEC
36.6	0.42	0.068	Hu127H8L6 (antibody, human IgG1, kappa, L234A L235A) heavy: not shown light: NIQLTQSPSSLSASVGQRVTITCRASESVDSYGNSFMHWYQQKPGKPPKVLIYLASTLESGVPSRFSGSGSRTDFTLTISSLQPEDFATYYCQQNNEDPLTFGQGTKLEIKRTVAAPSVFIFPPSDEQLKSGTASVVCLLNNFYPREAKVQWKVDNALQSGNSQESVTEQDSKDSTYSLSSTLTLSKADYEKHKVYACEVTHQGLSSPVTKSFNRGEC
35.5	0.49	0.063	Hu127H7L6 (antibody, human IgG1, kappa, L234A L235A) heavy: not shown light: NIQLTQSPSSLSASVGQRVTITCRASESVDSYGNSFMHWYQQKPGKPPKVLIYLASTLESGVPSRFSGSGSRTDFTLTISSLQPEDFATYYCQQNNEDPLTFGQGTKLEIKRTVAAPSVFIFPPSDEQLKSGTASVVCLLNNFYPREAKVQWKVDNALQSGNSQESVTEQDSKDSTYSLSSTLTLSKADYEKHKVYACEVTHQGLSSPVTKSFNRGEC
32.4	0.59	0.068	Hu127H4L5 (antibody, human IgG1, kappa, L234A L235A, V domains shown) VH: EAYLVQSGAEVKKPGASVKVSCKASGYSFTGYFMNWVRQAPGKGLEWMGRINPYSGDTFYNQKFKGRVTLTVDKSTSTVYMELSSLRSEDTAVYYCARRGYGNRGYWYFDVWGQGTTVTVSS VL: NIQLTQSPSSLSASVGDRVTITCRASESVDSYGNSFMHWYQQKPGKAPKVLIYLASTLESGVPSRFSGSGSRTDFTLTISSLQPEDFATYYCQQNNEDPLTFGQGTKLEIKR
38.5	0.54	0.073	Hu127H4L6 (antibody, human IgG1, kappa, L234A L235A, V domains shown) VH: EAYLVQSGAEVKKPGASVKVSCKASGYSFTGYFMNWVRQAPGKGLEWMGRINPYSGDTFYNQKFKGRVTLTVDKSTSTVYMELSSLRSEDTAVYYCARRGYGNRGYWYFDVWGQGTTVTVSS VL: NIQLTQSPSSLSASVGQRVTITCRASESVDSYGNSFMHWYQQKPGKPPKVLIYLASTLESGVPSRFSGSGSRTDFTLTISSLQPEDFATYYCQQNNEDPLTFGQGTKLEIKR

Target: T1, human NPR1 full-length protein …
Experiment: cell-based or functional assay
Remark: another data set of the same source

cGMP production: EC50 [nM]	cGMP production: Emax	cGMP production: Emin	Binder
54.9	0.57	0.23	CHI-102 (antibody, human IgG1, kappa, V domains shown) VH: DVKLVESGEGLVKPGGSLKLSCAASGFTFSTYAMSWVRQTPEKRLEWVAYISRGGDYIYYADTVKGRFTISRDNARNTLYLQMSSLKSEDTAMYYCTRDQTTVVVHWYFDVWGTGTTVTVSS VL: QIVLTQSPAIMSASPGEKVTMTCSASSSINYMHWYQQKPGTSPKRWIYDTSKLASGVPARFSGSGSGTSYSLTISSMEAGDAATYYCHQRNSYTFGGGTKLEIKR
43.6	0.59	0.21	Hu102H5L6 (antibody, human IgG1, kappa, L234A L235A, V domains shown) VH: DVKLVESGEGLVKPGGSLRLSCAASGFTFSTYGMSWVRQAPGKRLEWVAYISRGGDYIYYADTVKGRFTISRDNAKNSLYLQMNSLRAEDTAVYYCTRDQTTVVVHWYFDVWGQGTTVTVSS VL: DIQLTQSPSSLSASVGDRVTITCSASSSINYMHWYQQKPGKSPKRWIYDTSKLASGVPSRFSGSGSGTDYTLTISSLQPEDFATYYCHQRNSYTFGGGTKVEIKR
